Drawing on publication PMC4904203, this text covers percent of transfected cells with Venus complementation for three substances.

Assay [1] concerns the target MEF2C fused to the C-terminal half of Venus (VC) (UniProt Q8CFN5). As to the kind of experiment: split reporter (BiFC, NanoBiT); Venus BiFC: VN and VC fusions co-transfected into C2C12 myoblasts with mCherry as transfection control; confocal imaging 24 h after transfection; cells with Venus complementation counted as percent of mCherry-positive cells (mean ± SD, three experiments); for Fig. 6a cells were first transfected with Trip6 siRNA or control siRNA.

The target in assay [2] is nTRIP6 fused to the C-terminal half of Venus (VC). Described as above. As to conditions: scale: %.

UniProt Q8CFN5, sequence (Q8CFN5 whole entry, the tested form may be a part): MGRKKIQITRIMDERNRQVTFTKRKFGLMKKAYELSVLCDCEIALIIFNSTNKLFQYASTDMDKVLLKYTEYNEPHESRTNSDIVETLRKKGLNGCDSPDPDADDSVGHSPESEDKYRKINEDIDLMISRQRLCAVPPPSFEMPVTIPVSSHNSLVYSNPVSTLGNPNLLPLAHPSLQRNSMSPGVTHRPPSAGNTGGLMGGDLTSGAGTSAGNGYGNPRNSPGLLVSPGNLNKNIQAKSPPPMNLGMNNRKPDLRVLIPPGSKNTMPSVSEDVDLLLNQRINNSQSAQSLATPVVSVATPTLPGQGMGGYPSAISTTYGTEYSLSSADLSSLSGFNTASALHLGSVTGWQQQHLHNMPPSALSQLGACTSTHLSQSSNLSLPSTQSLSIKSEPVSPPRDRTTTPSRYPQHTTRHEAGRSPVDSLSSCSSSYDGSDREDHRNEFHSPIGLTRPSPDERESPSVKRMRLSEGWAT

In the case of “nTRIP6 (nuclear isoform of TRIP6) fused to the N-terminal half of Venus (VN) (natural protein)”, the percent of transfected cells with Venus complementation in assay [1] worked out at 70.6%.
Still for that read-out and setting: then “nTRIP6 lacking the LIM domains (pre-LIM) fused to VN (domain or fragment)”, with 65.5%.
As to “HDAC5-Flag fused to the N-terminal half of Venus (VN) (from UniProt Q9UQL6 1-1122) (enzyme)”, in assay [2], the percent of transfected cells with Venus complementation came out at 79.5.
